The values below come from the DeepSol protein solubility set.

The series is described as follows: soluble on expression in E. coli; label from the status in PepcDB or PDB records.
Take “MGHHHHHHSHMSKESVTVAGIDCGTNSIRLKIARVDADGMHEVVPRILRVIRLGQDVDKTHRFADEALERAYVAAREFAGVIAEHPIDGLRFVATSATRDAENREEFEDEIERILGVRPEVIPGTEEADLSFLGATSVVNRDDLPAPYLVVDLGGGSTELVIGGDGVSAPTTQVQGAFSMNIGSVRMTERHLTNDPPTQTQIDEAVADVDEHIDEAFRTVDAGKARTIIGVSGTVTTMTALAMGLKEYDHTVVDGHRLSFEDAYAVDDKFLRMTRAERREYKTIHPGRIDVVGGGAVVWSRVLARVSEAAKADHGEAIDSFVASEHGLLDGIVLDYGRRLLAQ”: the “soluble on expression in E. coli” value is given as “soluble”.

Turning to “MGHHHHHHSHMSTKVPIYLKRGSRKGKKEKLRDLLSSDMISPPLGDFRHTIHIGSGGGSDMFGDISFLQGKFHLLPGTMVEGPEEDGTFDLPFQFTRTATVCGRELPDGPSPLLKNAISLPVIGGPQALTLPTAQAPPKPPRLHLETPQPSPQEGGSVDIWRIPETGSPNSGLTPESGAEEPFLSSASSLLSLHVDLGPSILDDVLQIMDQDLDSMQIPT”, the “soluble on expression in E. coli” value is “soluble”.

Regarding “MGHHHHHHSHMTLEEFSAGEQKTERMDKVGDALEEVLSKALSQRTITVGVYEAAKLLNVDPDNVVLCLLAADEDDDRDVALQIHFTLIQAFCCENDINILRVSNPGRLAELLLLETDAGPAASEGAEQPPDLHCVLVTNPHSSQWKDPALSQLICFCRESRYMDQWVPVINLPER”, the “soluble on expression in E. coli” value is given as “not soluble”. The same measure for “MGHHHHHHSHMVEFPLPPHLTCAVIKAASLDCEDLLLPIAAMLSVENVFIRPVDPEYQKEAEQRHRELAAKAGGFNDFATLAVIFEQCKSSGAPASWCQKHWIHWRCLFSAFRVEAQLRELIRKLKQQSDFPKETFEGPKHEVLRRCLCAGYFKNVARRSVGRTFCTMDGRGSPVHIHPSSALHEQETKLEWIIFHEVLVTTKVYARIVCPIRYEWVRDLLPKLHEFNAHDLSSVARREVREDARRRWTNKENVKQLKDGISKDVLKKMQRRNDDKSISDARARFLERKQQRTQDHSDTRKETG”: “not soluble”; for “MGHHHHHHSHMVKFKVIALAALMGISGMAAQANELPDGPHIVTSGTASVDAVPDIATLAIEVNVAAKDAATAKKQADERVAQYISFLELNQIAKKDISSANLRTQPDYDYQDGKSILKGYRAVRTVEVTLRQLDKLNSLLDGALKAGLNEIRSVSLGVAQPDAYKDKARKAAIDNAIHQAQELANGFHRKLGPVYSVRYHVSNYQPSPMVRMMKADAAPVSAQETYEQAAIQFDDQVDVVFQLEPVDQQPAKTPAAQ”: “soluble”. As for “MGHHHHHHSHMWQAISRLLSEQLGEGEIELRNELPGGEVHAAWHLRYAGHDFFVKCDERELLPGFTAEADQLELLSRSKTVTVPKVWAVGADRDYSFLVMDYLPPRPLDAHSAFILGQQIARLHQWSDQPQFGLDFDNALSTTPQPNTWQRRWSTFFAEQRIGWQLELAAEKGIAFGNIDAIVEHIQQRLASHQPQPSLLHGDLWSGNCALGPDGPYIFDPACYWGDRECDLAMLPLHTEQPPQIYDGYQSVSPLPADFLERQPVYQLYTLLNRARLFGGQHLVIAQQSLDRLLAA”, the “soluble on expression in E. coli” value is on record as “soluble”. On to “MGHHHHHHSHPKQEKLLSLAGDSLFWSEADVVQATDDFNQNRKISQGTFADVYRGHRHGKPFVFKKLRETACSSPGSIERFFQAELQICLRCCHPNVLPVLGFCAARQFHSFIYPYMANGSLQDRLQGQGGSDPLPWPQRVSICSGLLCAVEYLHGLEIIHSNVKSSNVLLDQNLTPKLAHPMAHLCPVNKRSKYTMMKTHLLRTSAAYLPEDFIRVGQLTKRVDIFSCGIVLAEVLTGIPAMDNNRSPVYLKDLLLSDIPSSTASLCSRKTGVENVMAKEICQKYLEKGAGRLPEDCAEALATAACLCLRRRNTSLQEVCGSVAAVEERLRGRETLL”, for which the “soluble on expression in E. coli” value is given as “not soluble”. In the case of “MGHHHHHHSHPPEKHLGIYSVLPNHKADAVLSMPSSVTSGLHVQPALAVSMDFSTYGGLLPQGFIQRELFSKLGELAVGMKSESRTIGEQCSVCGVELPDNEAVEQHRKLHSGMKTYGCELCGKRFLDSLRLRMHLLAHSAGAKAFVCDQCGAQFSKEDALETHRQTHTGTD”, the “soluble on expression in E. coli” value was “soluble”. For “MGHHHHHHSHRASRKICFVCKKKGAAINCQKDQCLRNFHLPCGQERGCLSQFFGEYKSFCDKHRPTQNIQHGHVGEESCILCCEDLSQQSVENIQSPCCSQAIYHRKCIQKYAHTSAKHFFKCPQCNNRKEFPQEMLRMGIHIPDR”, the “soluble on expression in E. coli” value is reported as “not soluble”. In the case of “MGIDYNRWWHLKDETLGEELKGYIKMIEEDYLVYSGTTSQLHVSKLSNGSVNSIVNEILEQQGSWSIIYYNQKLKKLFIGRDVFGRQSLVFNFESMIFGCRTKPETSGKWIEIPFGQVTVFSLDSTDPVIYSYLDEYPENVLDGYFSGSDISRIVVNKKHGLLNVSRSTGGEIDSFNTKDLFQKVIDATKILLKNYHESHVAVCLSGGVDSTFVAHVVHSSVPENMQIDLINVAFGNSEKECEQAPDRKRARKALESFRTAYPTRQFRLILVNVDSQTLEVNRKESISDAAQPASSVLDDSLSCVLWFAVRAEGVDSENQQSVRSPATTCLLGSGADELLAGYARHRTRFEKEQIPENVAEECENELRRLGSRNGGRDARVAAQLGKTILSPLLEDTVVTWLNALPVDSKWDLSLPRGVGEKQLLRETVKMLGSPYDAPKQAMQFGSRMAKMSNAGDNSIKGSDKSPHLLKTDVN” it was “not soluble”; in that of “MGIFSRFADIVNSNVTSLLDKAENPEKMIRLIIQEMEDTLVEVRTASAKALADKKELTRKISSIEAQVADWQDKASLALLKQREDLARSALIEKQKVQDILSSLKTEFILVEESIEKLSAELIELETKLTETRARQQALVIRQQTAQHRNDIKSHTHSGKTERAMAKFEQYERRIDELDAKADSYSIGKANSLEQEFAELQAQDEIDKEIERLKEQMKKDALEHHHHHH”, “not soluble”. In the case of “MGIHFVDKADLWKSALLFNLKLRDRFRIAVDDHRGRATDLTAEEESALFRMLQTVAVPLIGNACHVFMNGFNRVQVYGLEKLHDALLNRPKNKPLVTVSNHVASVDDPFVIASLLPPKFLLDARNLRWTLCATDRCFKNPVTSAFSRSVKVLPISRGEGIYQQGMDIAISKLNNGGWVHIFPEGSRSRDGGKTMGSAKRGIGRLILDADTLPMVVPFVHTGMQDIMPVGASVPRIGKTVTVIIGDPIHFNDILSTEGAQHVSRKHLYDAVSSRIGQRLYDLKAQVDRVYIEQQSMMSHNAKTPSDRAAEIFHRVDWDSFGMGAQFSEESSPSSKPIGQSDDRIVRSPKRRVSPEGGVSLKIKKLMDSTEMMGFAARGLLMNEYKSRVESANVGRPLKAWREYFMNRGL” it was “soluble”; in that of “MGIKTQKNFICLKRTFSMNLRDAISVANPVQLEEEIKHDEVVSFLKSKNLLDKPVILNVEGKKVAKNFVSSRETLGKYLGVDAYSIARELSKIEDREAEIRVEPFSSLAMKKVDVNLQELPVIKYFPRDGGRYITAGIVIAQRNGVYNASIHRMLLLDESRVAARLVPPRHTYLMWREAVEREEELEVAVVIGTHPLFLFASATRVPSGKEFSYAAGLMGRLTLYRKGEMLVPDSEIILFGRITAETAKEGPFVDITGTYDIVRDEPVIVFDEMYVKEDYIYYSITPAGKEHQMLMGVPYEPVIYRFVSNVCKVKNVITTPGSCHYFHCVVQIEKKSEGDGKNAIIAALAANPSMKGVVVVDDDIDILSYEDMEFAIATRFQPDRDLVVVKGARGSSLDPSADKTTSKWGIDATKPLGKEGFDRVVLEHHHHHH”, “not soluble”. The same measure for “MGIPILKLGECLLISIQSELDDHTAVEFQEDLLAKIHETSARGVVIDITSIDFIDSFIAKILGDVVSMSKLMGAKVVVTGIQPAVAITLIELGITFSGVLSAMDLESGLEKLKQELGE”: “not soluble”; for “MGIRPVNRKRLSMDKVFIEQLEVITTIGVYDWEQQIKQKLVLDLEMAHDNRAAGKSDDVADALDYAQVSQAVLEHIEQGRFLLVERVAEEVAELIMTRFAVPWLRIRLTKPGAVPQAKGVGVIIERARG”: “not soluble”; for “MGKDSKKHKKERRRERSPSTSDSDEERLQKRLAEQRSLKKDEKRRQKEEMKKNESAEEKRARRMEKKMRKDAKRKDADAEDTLIPPELNYTNLNNPFNDTKLTQTFVWGKKLEREGKSGLTQDEITKQTSQRIRKNLHEAAEFKRIRDSRAAAKEDMEMMKRDADLRAGQISDTKEREFQMDQIKERTRIRIDQGRAKAIDLLSRYARFADENPHTAKIPDFELENPMEYLKASCKSVDDYEDLIEDIKTYREVDGWAKNETWWMDVTRIAEDEIQKKAAQNRGDVHASVQTEVQNMFKNKSIDELLKLEDQMDAKIRGNSGNKGYWQDLDDQLKVFIARKRLREHHGRVLRLQLAIIKEEQKKEIQQQESEELLPVAEVPPQVKIQKEEEEEEEEDEDDEKISKKVRRKIDVQTLDDPELDEPERERKWRALTGDQLDDVTRELYRIGCYRFSIFFLAEKPPTYISADDTMPGIEILDEQADVDNLTERRNRNRGTLPSSSAASSGAPQGASSKMMAIAREGMEADESIFGAEEQLAAQRHLWSDKYRPRKPTYLNRVQTGFDWNKYNQTHYDQDNPPPKIVQGYKFNIFYPDLLDMTVAPRFGLTSCEDPDFAIIRFKAGPPYEDIAFKVVNREWETLHKNGYKCQFQNGVFQLWFMFKKYRYRR”: “soluble”.

Consider “MGKGDPNKPRGKMSSYAFFVQTCREEHKKKHPDSSVNFAEFSKKCSERWKTMSAKEKSKFEDLAKSDKARYDREMKNYVPPKGDKKGKKKDPNAPKRPPSAFFLFCSEHRPKIKSEHPGLSIGDTAKKLGEMWSEQSAKDKQPYEQKAAKLKEKYEKDIAAYRAKGKSEVGKKGPGRPTGSKKKNEPEDEEEEEEEEDDEDEEEEDEDEE”, for which the “soluble on expression in E. coli” value was “soluble”. In the case of “MGKIQARIPDEVQEVASAVIKSTGLTVSDAVRMFMTRIARDRALPLDLFQPNLETLQAIEDAEMGRVERTSLDGLRAMIRDDKAEVCKSAK” it was “not soluble”; in that of “MGKKKFIENEDGTTEVQETESEAPKDKKEKKEYRLRTLGANIKTSKKSFKEQFFMNYEDGLKLIKKMRGKGKGGQLVQKVMPRHISLPYHMSGKAAMEEACDWIAQNTVGKYRKEYKGIVVAVGSVDLASAPRVISDQYAFHTDVAINQIVFIPKIGDQYEAKVKYVQEGLMVGVVMDMITIHIKQNDKTSEDQVAIDDKILVKYSGIRIKSSLCHLKGEYVKMIEKAEIKEEEEVEDEADEETDVKEKVKEEEDEDEDMEE”, “not soluble”; in that of “MGKKKNKKTEVQQPDPMRKNWIMENMDSGVIYLLESWLKAKSQETGKEISDIFANAVEFNIVLKDWGKEKLEETNTEYQNQQRKLRKTYIEYYDREMK”, “soluble”. Regarding “MGKKKVKFLQKEELRTLLQSLDLQSGINNDWFLLLIAKTGMRYAEALALTPSDFDWVNATVTIDKSWDYKTHRGFKKTKSTASDREIAIDWQIVGQFKPLIQDLPANDPIFIEKTERGTYKKQYNSTMNNYLEAKCKTLTITVISLHALRHTHASVLLAEGVSIHTISARLGHADVGVTQEIYAHVLDELQKKDDQKMMSVLMQIALEHHHHHH”, the “soluble on expression in E. coli” value is recorded as “not soluble”. Regarding “MGKKRKITDEKDAQHVPAEKREKVENWLKKSTEKPTSSQSDAEKKKKRPWRNKVRKLAAKKAAADKKSENPEEPPLILEPKSSSDENTKKKRKRGPKKKKFKPEVAGKAAETENDDVAAAPEEADPIAEAKKRLDAGRFRFLNEKLYTCTGSEAFDFFKEDPTAFDLYHKGFADQVKKWPNHPLREIIRWLQSKPDQQSVFDLGCGEAKIAEAVGEKHKIRSFDLVAVNDRVESCDMSKLPAEDSSADIVIYCLSLMGTNLYDFIREARRVLKIGGILKIAEVTSRFVSIKQFCEAITKMGFEQSHRRELTDYFMMMEFKKVEKVEQKRPYGLKLKPCLYKKR”, the “soluble on expression in E. coli” value is given as “soluble”.
